Series [1] has as its system human lung cancer A549 cells. The series can be described thus: Orthotopic transplantation tumor model of human lung cancer A549 cells.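 Note: test animals were NOG mice aged 6-8 weeks.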 Conditions: after administration for 28 days.
Description: The human lung cancer A549 cell strain is selected. The NOG Mice of 6-8 weeks old are selected.
The DMEM containing 10% fetal bovine serum is selected for the human lung cancer A549 cells, and then is placed in the CO2 constant-temperature incubator at 37° C. for culturing. The A549 cells at the logarithmic phase are digested by pancreatin and thereafter washed with serum-free DMEM; the living cell concentration is adjusted to 1×10^8 cells per milliliter; 20 μL cell suspension is taken and inoculated at the lung of the NOG mice; two weeks later, the orthotopic transplantation tumor model of A549 lung cancer cells is constructed in the NOG mice.
The test system of series [2] is human breast cancer MCF7 cells. Kind of series: Orthotopic transplantation tumor model of human breast cancer MCF7 cells. It is filed as in vivo, BALB/c nude mice. The settings on record: after administration for 28 days. How it is done:
One day before the experiment, 0.5 mg of 17ß estradiol sustained release tablet is embedded below the neck skin of the BALB/c nude mice.

Series [3] addresses EGFR extracellular domain (Homo sapiens, UniProt P00533). Kind of series: Affinity test by surface plasmon resonance (Biacore T200, CM5 chip). The settings on record: for Dissociation rate constant (koff) / Ka: EGFR extracellular domain coupled on CM5 chip, analyte 4-256 nM; for Affinity with the EGFR (in words): compared with rLZ-8. Type of series: binding. How it is done:
The Biacore™ T200 equipment (a Surface Plasmon Resonance from GE Company) is selected. Through the surface plasma resonance technology, the affinity of the rLZ-8 and the mutants thereof to the EGFR extracellular domain is tested. The CM5 chip is adopted to serve as the affinity test chip.
The EGFR extracellular domain (with an amino acid sequence of 25-645) serves as the ligand for coupling; 1 mg EGFR freeze-dried powders are diluted with HEPES buffer solution to a concentration of 400 μg/mL and set aside. Three 1.5 mL EP tubes are prepared; 10 μL ligand are respectively added into the three tubes, then 90 μL 10 mM sodium acetate with different pH values of 4.5, 5.0 and 5.5 are respectively added into the tubes and are mixed completely and uniformly; and a final concentration of the ligand is 40 μg/mL. Moreover, 200 μL 50 mM sodium acetate is added into another 1.5 mL EP tube.
The ligand has a molecular weight of 70 kDa, the analyte (rLZ-8) has a molecular weight of 12.4 kDa. In theory, one rLZ-8 […] can bind with one EGFR, and thus the stoichiometric ratio Sm is equal to 1. Through the following equations, the coupling amount RL of the ligand is calculated.
Through the experimental experience, the optimal reagent coupling amount is set to be 3*RL, and the coupling amount is set to be 1700 RU. The EGFR extracellular domain is successively coupled on the CM5 chip.
In the affinity test, in order to eliminate the influence of different concentrations on the affinity, every of the rLZ-8 and the mutants thereof are tested with eight concentrations, wherein: seven concentrations are gradient concentrations, and the last one is the test reference concentration.
Background: Surface plasmon resonance follows binding to a sensor surface in real time, without labels.

Series [4] has as its system human colon cancer SW480 cells. The series can be described thus: Transplantation tumor model of human colon cancer SW480 cells. Type of series: in vivo, BALB/c nude mice. Conditions: after administration for 28 days.
Description: The RPMI1640 medium containing 10% fetal bovine serum is selected for the human colon cancer SW480 cells, and then is placed in the CO2 constant-temperature incubator at 37° C. for culturing. The SW480 cells at the logarithmic phase are digested by pancreatin and thereafter washed with serum-free RPMI1640 medium; 2×10^6 cells are inoculated below the back skin of the BALB/c nude mice; after the tumor blocks for observation are formed and have the diameter larger than 0.5 cm, the mice are divided into groups randomly; and the transplantation tumor model of human colon cancer SW480 cells are constructed in the BALB/c nude mice.
In series [5] the test system is human liver cancer Hep G2 cells. Conditions: for Mice weight after experiment: mouse, in vivo; for Mice tumor weight after experiment / Survival rate of mice after experiment: qd×28 i.v., rLZ-8 and mutants 0.5 mg/kg, sorafenib 50 mg/kg; for Survival rate of mice after experiment: 10 mice per group. The source says: Two weeks later, the model mice are divided into groups randomly, and each group has 10 mice. The administration method is caudal vein injection, once a day, for consecutive 28 days (qd×28, i.v.). […] During the experiment, if the mouse dies, the dead mouse is weighted on the same day, and the tumor tissue is taken out to be weighted. For the living mouse after administration for 28 days, the mouse is killed, and then the tumor tissue is taken out to be weighted. The death time and death number of the mice in each group are recorded in detail; the survival conditions of the mice of the experimental groups and the control groups are analyzed, and the survival rate is calculated, wherein the survival rate is obtained through subtracting the death number of the mice from the total number of the mice, and then dividing the difference by the total number of the mice.

B1: rLZ-8 (R9A): alanine mutant of rLZ-8 at R9 (protein)
chain: MSDTALIFALAWDVKKLSFDYTPNWGRGNPNNFIDTVTFPKVLTDKAYTYRVAVSGRNLGVKPSYAVESDGSQKVNFLEYNSGYGIADTNTIQVFVVDPDTNNDFIIAQWN
Turning to B1, in series [1], the “Mice survival rate after experiment” value was determined as 50%, the “Mice tumor weight after experiment” value was 0.69 ± 0.53 g and the “Mice weight after experiment” value came out at 20.0 ± 1.4 g. Further, the “Mice tumor weight after experiment” value in series [2] amounted to 0.79 ± 0.31 g. Moreover, in series [3], the “Dissociation rate constant (koff)” value stood at 0.000528 s⁻¹, the Ka is 61200 M⁻¹ s⁻¹ and the “Affinity with the EGFR (in words)” value is “no obvious change”. In addition, the “Mice tumor weight after experiment” value in series [4] turned out to be 1.89 ± 0.37 g. For the same molecule, in series [5], the “Mice weight after experiment” value was 19.3 ± 1.3 g, the “Mice tumor weight after experiment” value amounted to 0.65 ± 0.43 g and the “Survival rate of mice after experiment” value was 50%.

B2: rLZ-8 (D20H): rLZ-8 mutant after surface potential optimization, D20H (protein)
chain: MSDTALIFRLAWDVKKLSFHYTPNWGRGNPNNFIDTVTFPKVLTDKAYTYRVAVSGRNLGVKPSYAVESDGSQKVNFLEYNSGYGIADTNTIQVFVVDPDTNNDFIIAQWN
In the case of B2, in series [1], the “Mice survival rate after experiment” value worked out at 70%, the “Mice tumor weight after experiment” value was determined as 0.51 ± 0.32 g and the “Mice weight after experiment” value is reported as 19.9 ± 1.7 g. In addition, the “Mice tumor weight after experiment” value in series [2] came out at 0.61 ± 0.22 g. In series [3], the “Dissociation rate constant (koff)” value was found to be 0.000432 s⁻¹ and the Ka came to 58700 M⁻¹ s⁻¹. Also, the “Mice tumor weight after experiment” value in series [4] is recorded as 1.54 ± 0.45 g. In series [5], the “Mice weight after experiment” value is reported as 19.7 ± 1.7 g, the “Mice tumor weight after experiment” value came out at 0.60 ± 0.31 g and the “Survival rate of mice after experiment” value was 60%.

B3: rLZ-8 (K46E/K74E): rLZ-8 mutant K46E and K74E (protein)
chain: MSDTALIFRLAWDVKKLSFDYTPNWGRGNPNNFIDTVTFPKVLTDEAYTYRVAVSGRNLGVKPSYAVESDGSQEVNFLEYNSGYGIADTNTIQVFVVDPDTNNDFIIAQWN
Turning to B3, in series [1], the “Mice survival rate after experiment” value stood at 50%, the “Mice tumor weight after experiment” value came to 0.63 ± 0.41 g and the “Mice weight after experiment” value is on record as 20.0 ± 1.5 g. In series [2], the “Mice tumor weight after experiment” value is 0.73 ± 0.24 g. In series [3], the “Dissociation rate constant (koff)” value came to 0.000614 s⁻¹ and the Ka was found to be 65700 M⁻¹ s⁻¹. In addition, in series [4], the “Mice tumor weight after experiment” value was determined as 2.23 ± 0.54 g. Besides, in series [5], the “Mice weight after experiment” value was determined as 20.1 ± 1.7 g, the “Mice tumor weight after experiment” value is recorded as 0.69 ± 0.42 g and the “Survival rate of mice after experiment” value is reported as 60%.

B4: rLZ-8 (K46E): rLZ-8 mutant K46E (protein)
chain: MSDTALIFRLAWDVKKLSFDYTPNWGRGNPNNFIDTVTFPKVLTDEAYTYRVAVSGRNLGVKPSYAVESDGSQKVNFLEYNSGYGIADTNTIQVFVVDPDTNNDFIIAQWN
On to B4, for which, in series [1], the “Mice survival rate after experiment” value stood at 40%, the “Mice tumor weight after experiment” value is 0.65 ± 0.31 g and the “Mice weight after experiment” value amounted to 20.4 ± 1.6 g. Also, the “Mice tumor weight after experiment” value in series [2] turned out to be 0.75 ± 0.32 g. Further, the “Mice tumor weight after experiment” value in series [4] is reported as 2.15 ± 0.62 g. In addition, in series [5], the “Mice weight after experiment” value stood at 19.4 ± 1.8 g, the “Mice tumor weight after experiment” value was found to be 0.75 ± 0.44 g and the “Survival rate of mice after experiment” value is recorded as 60%.

B5: rLZ-8 (L17K): rLZ-8 mutant after surface potential optimization, L17K (protein)
chain: MSDTALIFRLAWDVKKKSFDYTPNWGRGNPNNFIDTVTFPKVLTDKAYTYRVAVSGRNLGVKPSYAVESDGSQKVNFLEYNSGYGIADTNTIQVFVVDPDTNNDFIIAQWN
Turning to B5, in series [1], the “Mice survival rate after experiment” value is 70% and the “Mice tumor weight after experiment” value worked out at 0.53 ± 0.30 g. In addition, the “Mice tumor weight after experiment” value in series [2] was 0.63 ± 0.31 g. In series [3], the “Dissociation rate constant (koff)” value was determined as 7.56e-05 s⁻¹ and the Ka turned out to be 10100 M⁻¹ s⁻¹. Besides, the “Mice tumor weight after experiment” value in series [4] amounted to 1.62 ± 0.41 g. Further, in series [5], the “Mice weight after experiment” value came out at 20.1 ± 1.4 g, the “Mice tumor weight after experiment” value is reported as 0.58 ± 0.33 g and the “Survival rate of mice after experiment” value was found to be 70%.

B6: rLZ-8 (K41D/K46E/K74E): rLZ-8 mutant K41D, K46E and K74E (protein)
chain: MSDTALIFRLAWDVKKLSFDYTPNWGRGNPNNFIDTVTFPDVLTDEAYTYRVAVSGRNLGVKPSYAVESDGSQEVNFLEYNSGYGIADTNTIQVFVVDPDTNNDFIIAQWN
Consider B6, for which, in series [1], the “Mice survival rate after experiment” value is 40%, the “Mice tumor weight after experiment” value worked out at 1.20 ± 0.62 g and the “Mice weight after experiment” value is reported as 19.1 ± 1.3 g. Besides, the “Mice tumor weight after experiment” value in series [2] is given as 1.10 ± 0.42 g. Further, in series [3], the Ka was found to be 35300 M⁻¹ s⁻¹ and the “Affinity with the EGFR (in words)” value is recorded as “decreased”. Also, in series [4], the “Mice tumor weight after experiment” value is given as 3.10 ± 0.48 g. In series [5], the “Mice weight after experiment” value was found to be 20.0 ± 1.2 g, the “Mice tumor weight after experiment” value turned out to be 1.25 ± 0.53 g and the “Survival rate of mice after experiment” value is 40%.

B7: rLZ-8 (D20H/D70K): rLZ-8 mutant after surface potential optimization, D20H and D70K (protein)
chain: MSDTALIFRLAWDVKKLSFHYTPNWGRGNPNNFIDTVTFPKVLTDKAYTYRVAVSGRNLGVKPSYAVESKGSQKVNFLEYNSGYGIADTNTIQVFVVDPDTNNDFIIAQWN
Turning to B7, in series [1], the “Mice survival rate after experiment” value came to 70%, the “Mice tumor weight after experiment” value is on record as 0.49 ± 0.28 g and the “Mice weight after experiment” value is listed as 20.6 ± 1.7 g. For the same molecule, in series [2], the “Mice tumor weight after experiment” value is given as 0.60 ± 0.27 g. Moreover, the “Mice tumor weight after experiment” value in series [4] amounted to 1.60 ± 0.29 g. In series [5], the “Mice weight after experiment” value came out at 20.1 ± 1.5 g, the “Mice tumor weight after experiment” value is 0.51 ± 0.27 g and the “Survival rate of mice after experiment” value is 70%.

B8: rLZ-8 (M1A/R9A/D100A): rLZ-8 mutant named only in Tables 2, 3, 7 and 8 (protein)
chain: ASDTALIFALAWDVKKLSFDYTPNWGRGNPNNFIDTVTFPKVLTDKAYTYRVAVSGRNLGVKPSYAVESDGSQKVNFLEYNSGYGIADTNTIQVFVVDPATNNDFIIAQWN
Consider B8, for which the figures for the “Mice tumor weight after experiment” value in series [2], in series [4] and in series [5] were 0.77 ± 0.32 g, 1.97 ± 0.35 g and 0.78 ± 0.67 g, respectively. For the same molecule, the “Survival rate of mice after experiment” value in series [5] turned out to be 60%.

B9: FIP-fve: fungai immunomodulatory protein from flammulina velutipes (protein)
chain: SATSLTFQLAYLVKKIDFDYTPNWGRGTPSSYIDNLTFPKVLTDKKYSYRVVVNGSDLGVESNFAVTPSGGQTINFLQYNKGYGVADTKTIQVFVVIPDTGNSEEYIIAEWKKT
Take B9: the “Affinity with the EGFR (in words)” value in series [3] is reported as “does not have the capacity of binding with the EGFR”.

For the origin of these results see patent US12077566B2, “Mutants of recombinant immunoregulatory protein of Ganoderma lucidum and applications thereof” (priority 2017, dated 2024).
